From IntAct's records for PubMed 16424905

B1: AN1-type zinc finger protein 5 (Homo sapiens), O76080 (parent)
chain: MAQETNQTPGPMLCSTGCGFYGNPRTNGMCSVCYKEHLQRQQNSGRMSPMGTASGSNSPTSDSASVQRADTSLNNCEGAAGSTSEKSRNVPVAALPVTQQMTEMSISREDKITTPKTEVSEPVVTQPSPSVSQPSTSQSEEKAPELPKPKKNRCFMCRKKVGLTGFDCRCGNLFCGLHRYSDKHNCPYDYKAEAAAKIRKENPVVVAEKIQRI

Variants of: B1
Settings: with ubc_human UBC

Effect of a mutation on the interaction, disrupting interaction:
C30A
C33A

Variants of: B1
Settings: with psmd6_human PSMD6, Q15008
psmd6_human PSMD6, Q15008, sequence (Q15008 whole entry): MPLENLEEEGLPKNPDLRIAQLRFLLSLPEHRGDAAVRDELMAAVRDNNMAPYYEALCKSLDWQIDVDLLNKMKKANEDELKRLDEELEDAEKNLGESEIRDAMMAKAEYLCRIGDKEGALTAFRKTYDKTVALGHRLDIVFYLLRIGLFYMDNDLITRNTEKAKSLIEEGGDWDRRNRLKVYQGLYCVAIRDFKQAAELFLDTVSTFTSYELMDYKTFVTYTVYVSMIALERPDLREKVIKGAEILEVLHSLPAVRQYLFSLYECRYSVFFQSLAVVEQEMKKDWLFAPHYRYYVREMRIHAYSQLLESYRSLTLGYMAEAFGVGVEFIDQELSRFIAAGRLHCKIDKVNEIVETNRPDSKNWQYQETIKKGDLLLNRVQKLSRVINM

Effect of a mutation on the interaction, disrupting interaction:
C30A
C33A
C170A
C175A
